Publication PMC7244744, “Vesicular transport mediates the uptake of cytoplasmic proteins into mitochondria in Drosophila melanogaster” (Nature Communications, 2020)

Target: the molecule itself
Experiment: SDS-PAGE and western blot with and without DTT; flight-muscle tissue homogenates of wild-type flies, mitochondrial fraction; monomer band and upper band (Dosmit*); analysed in the presence and absence of DTT

B1: Dosmit (downsizing mitochondria), endogenous in fly flight muscle (natural protein, UniProt Q9VAM6 1-133, looked up)
chain: MEPISHLVKSSLPNYLSSLPVPDSIGGWFKLSFKDWLALIPPTVVVAGLGYTAYLAYCPAARASCAAKNSGRCNNHIRKNEPKVVDMIDVEDIAEKAAFCRCWKTKNWPYCDGSHGEHNKQTGDNVGPIVIKK
notes: endogenous protein of flight muscle; Seen as monomer and dimer (Dosmit*) bands on western blots; the dimer band is reduced to the monomer by DTT; also called Dosmit* (dimer form); CG1458; source: endogenous, flight-muscle tissue homogenate of wild-type flies (mitochondrial fraction)
stoichiometry N: 2
